The record followed here is US20210317223A1 (DRAGONFLY THERAPEUTICS, published 2021).

In experiment [1] the target is T1, B-cell maturation antigen (BCMA) (human, UniProt Q02223 1-184).
T1 construct: This is endogenous BCMA on human myeloma cell lines (KMS12-PE low, MM.1R high expression); the whole entry is used; also called surface BCMA
T1 sequence: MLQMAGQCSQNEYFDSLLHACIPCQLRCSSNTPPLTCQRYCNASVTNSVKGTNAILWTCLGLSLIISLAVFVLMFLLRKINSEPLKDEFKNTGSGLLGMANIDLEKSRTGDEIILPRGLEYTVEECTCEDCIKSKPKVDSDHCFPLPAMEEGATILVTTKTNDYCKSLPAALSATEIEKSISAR
Nature of the experiment: flow cytometry on KMS12-PE cells, 100 ug/mL, incubation times as labelled, anti-human IgG secondary antibody. As to the method:
KMS12-PE or MM.1R cells were incubated with an anti-BCMA monoclonal antibody (MAB42), bivalent TriNKET (NKG2D-binding-F4-TriNKET-BCMA), or monovalent TriNKET (A49-DB-TriNKET-BCMA). A49-DB-TriNKET-BCMA is a TriNKET in which the first antigen-binding site comprises an Fab that binds NKG2D and the second antigen-binding site comprises an Fab that binds BCMA, each connected to an Fc domain, forming a bi-valent antibody (WO2018/148566).
To assess total surface BCMA, a saturating concentration of 100 μg/mL was used, whereas 100 ng/mL was selected to investigate sub-saturation surface stabilization. Each sample was divided into thirds, with an aliquot each placed on ice for 20 minutes, at 37° C. for 2 hours or 37° C. for 24 hours. After the incubation period cells were washed and bound TriNKET was detected using an anti-human IgG secondary antibody. After staining the cells were fixed and stored at 4° C., all samples were analyzed at the end of the study.
On the technique in general: A flow cytometer gives signals particle by particle.

The target in experiment [2] is T2, CD16-F158V (UniProt P08637 17-254).
T2 construct: whole, on cells; It is probably the mature protein, so it may not match the position on the precursor entry; The KHYG-1 cells also express NKG2D
T2 sequence (P08637 17-254 F176V): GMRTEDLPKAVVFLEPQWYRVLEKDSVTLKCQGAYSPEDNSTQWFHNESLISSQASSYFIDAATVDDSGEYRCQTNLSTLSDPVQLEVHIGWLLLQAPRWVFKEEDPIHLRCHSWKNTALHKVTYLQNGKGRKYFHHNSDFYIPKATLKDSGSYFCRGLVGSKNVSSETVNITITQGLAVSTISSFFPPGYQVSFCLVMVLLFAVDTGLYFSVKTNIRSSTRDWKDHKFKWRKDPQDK
Description: flow cytometry on KHYG-1 cells transduced with CD16-F158V (the cells also express NKG2D), anti-human IgG secondary antibody, MFI. The method, then: (§1) The KHYG-1 human NK cell line was used to assess NKG2D binding of TriNKET NKG2D-binding-F4-TriNKET-BCMA. KHYG-1 cells transduced to express CD16-F158V were used to investigate the contribution of Fc CD16 binding. TriNKETs were diluted, and were incubated with KHYG-1 cells. Binding of the TriNKET was detected using a fluorophore conjugated anti-human IgG secondary antibody. Cells were analyzed by flow cytometry and Median Fluorescence Intensity (“MFI”) reported.

The target in experiment [3] is T3, NKG2D (human, UniProt P26718 1-216).
T3 construct: whole, on cells; also called NKG2D receptor
T3 sequence (looked up): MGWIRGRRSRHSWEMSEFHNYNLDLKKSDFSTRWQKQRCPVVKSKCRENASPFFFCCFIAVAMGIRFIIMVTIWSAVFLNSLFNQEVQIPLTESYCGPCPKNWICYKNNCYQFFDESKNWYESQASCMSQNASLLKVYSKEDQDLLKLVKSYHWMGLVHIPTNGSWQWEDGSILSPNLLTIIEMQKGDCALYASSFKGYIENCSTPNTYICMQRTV
Nature of the experiment: flow cytometry on KHYG-1 parental (CD16-) cells expressing NKG2D, anti-human IgG secondary antibody, MFI. The method, then:
as §1

B1: NKG2D-binding-F4-TriNKET-BCMA (bispecific antibody, human IgG1, kappa)
heavy 1: EVQLLESGGGLVQPGGSLRLSCAASGFTFSDNAMGWVRQAPGKGLEWVSAISGPGSSTYYADSVKGRFTISRDNSKNTLYLQMNSLRAEDTAVYYCAKVLGWFDYWGQGTLVTVSSASTKGPSVFPLAPSSKSTSGGTAALGCLVKDYFPEPVTVSWNSGALTSGVHTFPAVLQSSGLYSLSSVVTVPSSSLGTQTYICNVNHKPSNTKVDKKVEPKSCDKTHTCPPCPAPELLGGPSVFLFPPKPKDTLMISRTPEVTCVVVDVSHEDPEVKFNWYVDGVEVHNAKTKPREEQYNSTYRVVSVLTVLHQDWLNGKEYKCKVSNKALPAPIEKTISKAKGQPREPRVYTLPPCRDELTKNQVSLTCLVKGFYPSDIAVEWESNGQPENNYKTTPPVLVSDGSFTLYSKLTVDKSRWQQGNVFSCSVMHEALHNHYTQKSLSLSPGSGSGGGGSDIQMTQSPSSVSASVGDRVTITCRASQGISSWLAWYQQKPGKAPKLLIYAASSLQSGVPSRFSGSGSGTDFTLTISSLQPEDFATYYCQQGVSFPRTFGCGTKVEIKGGGGSGGGGSGGGGSGGGGSEVQLVESGGGLVKPGGSLRLSCAASGFTFSSYSMNWVRQAPGKCLEWVSSISSSSSYIYYADSVKGRFTISRDNAKNSLYLQMNSLRAEDTAVYYCARGAPMGAAAGWFDPWGQGTLVTVSS
heavy 2: EVQLLESGGGLVQPGGSLRLSCAASGFTFSDNAMGWVRQAPGKGLEWVSAISGPGSSTYYADSVKGRFTISRDNSKNTLYLQMNSLRAEDTAVYYCAKVLGWFDYWGQGTLVTVSSASTKGPSVFPLAPSSKSTSGGTAALGCLVKDYFPEPVTVSWNSGALTSGVHTFPAVLQSSGLYSLSSVVTVPSSSLGTQTYICNVNHKPSNTKVDKKVEPKSCDKTHTCPPCPAPELLGGPSVFLFPPKPKDTLMISRTPEVTCVVVDVSHEDPEVKFNWYVDGVEVHNAKTKPREEQYNSTYRVVSVLTVLHQDWLNGKEYKCKVSNKALPAPIEKTISKAKGQPREPQVCTLPPSRDELTENQVSLTCLVKGFYPSDIAVEWESNGQPENNYKTTPPVLDSDGSFFLYSWLTVDKSRWQQGNVFSCSVMHEALHNHYTQKSLSLSPG
light: EIVLTQSPGTLSLSPGERATLSCRASQSVSDEYLSWYQQKPGQAPRLLIHSASTRATGIPDRFSGSGSGTDFTLAISRLEPEDFAVYYCQQYGYPPDFTFGQGTKVEIKRTVAAPSVFIFPPSDEQLKSGTASVVCLLNNFYPREAKVQWKVDNALQSGNSQESVTEQDSKDSTYSLSSTLTLSKADYEKHKVYACEVTHQGLSSPVTKSFNRGEC
notes: An A49 anti-NKG2D scFv sits at the C-terminus of one Fc chain; also called A49-F4-TriNKET-BCMA; NKG2D-F4-TriNKET-BCMA
Consider B1, for which the binding result in experiment [1] and in experiment [2] was “binds” in each case.

B2: anti-BCMA monoclonal antibody MAB42 (antibody, V domains shown)
VH: EVQLLESGGGLVQPGGSLRLSCAASGFTFSDNAMGWVRQAPGKGLEWVSAISGPGSSTYYADSVKGRFTISRDNSKNTLYLQMNSLRAEDTAVYYCAKVLGWFDYWGQGTLVTVSS
VL: EIVLTQSPGTLSLSPGERATLSCRASQSVSDEYLSWYQQKPGQAPRLLIHSASTRATGIPDRFSGSGSGTDFTLAISRLEPEDFAVYYCQQYGYPPDFTFGQGTKVEIK
notes: also called anti-BCMA mAb; BCMA mAb
As for B2, the binding result in experiment [3] is “no binding (tested: 100 ug/ml)”; in experiment [1] it was “binds”; in experiment [2] it was “binds”.
